# Laboratory results as given in patent publication US20090060916A1 (published 2009).
# Where “and” joins values, the source holds several entries; their conditions need not be identical. Equal entries are not always repeated. Where two headings read alike, the source gives them in different places.
# What was measured:
# human IL-4 [1] = target: T1, human IL-4 (human, UniProt P05112 25-153, biotinylated in the receptor binding assay and on the Biacore chip); experiment: DOM9 RBA (IL-4 RBA)
# T1 construct: also called interleukin-4; biotinylated IL-4
# T1 sequence (looked up): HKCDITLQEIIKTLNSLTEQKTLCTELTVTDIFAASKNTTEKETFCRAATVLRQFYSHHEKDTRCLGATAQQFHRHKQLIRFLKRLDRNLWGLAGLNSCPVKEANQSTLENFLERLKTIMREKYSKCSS
# From the text: (§1) The wells were washed three times with 0.1% (v/v) Tween 20 in PBS, followed by three washes with PBS, before blocking with 2% (w/v) BSA in PBS. […] The reaction was stopped by the addition of HCl and the absorbance read at 450 nm.
# human IL-4 [2] = target: T1, human IL-4; experiment: DOM9 RBA (IL-4 RBA); remark: listed apart in the source
# rhesus IL-4 = target: T2, rhesus IL-4 (rhesus, UniProt P51492 25-153); experiment: inferred from TF-1 proliferation with rhesus IL-4
# T2 sequence (looked up): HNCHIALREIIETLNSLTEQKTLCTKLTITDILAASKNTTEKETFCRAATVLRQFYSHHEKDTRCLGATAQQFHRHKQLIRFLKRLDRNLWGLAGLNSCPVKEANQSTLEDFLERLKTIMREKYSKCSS
# Protocol: (§2) The mixture was incubated for 72 hours at 37° C. 5% CO₂. […] 96® reagent (colorometric reagent for determining viability, Promega, Madison, USA) was then added and the number of cells per well was quantified by measuring the absorbance at 490 nm.
# (§3) A dose-response of the dAb will determine the ND50 in this set up.
# cynomolgous IL-4 = target: T3, cynomolgous IL-4 (cynomolgous, UniProt P79339 25-153); experiment: inferred from TF-1 proliferation with cynomolgous IL-4
# T3 construct: also called Cyno IL-4
# T3 sequence: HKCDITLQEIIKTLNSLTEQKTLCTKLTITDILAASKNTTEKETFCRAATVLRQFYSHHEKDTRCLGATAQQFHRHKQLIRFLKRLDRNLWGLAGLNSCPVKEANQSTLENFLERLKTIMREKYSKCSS
# Protocol: as §2, §3
# human IL-4 [3] = target: T1, human IL-4; experiment: IL-4 RBA: ELISA, IL-4R/Fc coated, biotinylated IL-4
# From the text: as §1
# human IL-4 [4] = target: T1, human IL-4; experiment: screening of the affinity maturation output; IL-4 RBA and cell assay
# human IL-4 [5] = target: T1, human IL-4; experiment: Biacore SPR, biotinylated IL-4 on SA chip, co-inject
# Protocol: Analytes were passed over the antigen-coated flow-cell, with in-line referencing against a blank flow-cell, at a flow rate of 30 μl/min in HBS-EP running buffer (Biacore). The first dAb was injected, followed immediately by injection of the second dAb using the Biacore's co-inject function.
# human IL-13 [6] = target: T4, human IL-13 (human, UniProt P35225 35-146, biotinylated on the Biacore chip); experiment: cell-based or functional assay
# T4 sequence (P35225 35-146 limits assumed): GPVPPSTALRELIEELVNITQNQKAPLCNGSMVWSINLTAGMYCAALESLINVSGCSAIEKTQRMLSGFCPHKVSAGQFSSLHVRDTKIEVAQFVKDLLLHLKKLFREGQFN
# human IL-13 [7] = target: T4, human IL-13; experiment: IL-13 BIAcore binding assay
# human IL-13 [8] = target: T4, human IL-13; experiment: DOM10 RBA (IL-13 sandwich ELISA per paragraph 473)
# Protocol: (§4) A MAXISORP™ plate (high protein binding ELISA plate, Nunc, Denmark) was coated overnight with 2.5 μg/ml coating antibody (Module Set, Bender MedSystems, Vienna, Austria), then washed once with 0.05% (v/v) Tween 20 in PBS before blocking with 0.5% (w/v) BSA 0.05% (v/v) Tween 20 in PBS. […] The plate was then incubated with TMB substrate (KPL, Gaithersburg, USA), and the reaction was stopped by the addition of HCl and the absorbance read at 450 nm.
# These in-line fusions were constructed and expressed as described above. […] After this incubation, the level of cell proliferation was determined.
# human IL-13 [9] = target: T4, human IL-13; experiment: IL-13 sandwich ELISA, competition with coating antibody
# Protocol: as §4
# human IL-13 [10] = target: T4, human IL-13; experiment: cell-based or functional assay; remark: listed apart in the source
# human IL-13 [11] = target: T4, human IL-13; experiment: IL-13 BIAcore binding assay; remark: listed apart in the source
# human IL-13 [12] = target: T4, human IL-13; experiment: cell-based or functional assay; remark: listed apart in the source
# cynomolgous IL-13 [13] = target: T5, cynomolgous IL-13 (cynomolgous, UniProt Q0PW92 19-132, The Biacore assay used biotinylated cIL-13 according to our card. The biotin cannot be carried in the letters.); experiment: cell-based or functional assay
# T5 sequence (Q0PW92 entry or part of it limits assumed, form in doubt): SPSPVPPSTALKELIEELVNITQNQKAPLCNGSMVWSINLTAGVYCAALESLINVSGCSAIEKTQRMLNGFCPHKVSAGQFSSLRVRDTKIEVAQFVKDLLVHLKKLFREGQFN
# human IL-13 [14] = target: T4, human IL-13; experiment: Biacore SPR, biotinylated human IL-13 on SA chip
# Protocol: (§5) 50 to 100 ul of the diluted supernatant was injected (kininject) at 50 ul/min flow rate, followed by a 5 minute dissociation phase. Association and dissociation off-rates and constants were calculated using BIAevaluation software v4.1 (Biacore).
# cynomolgous IL-13 [15] = target: T5, cynomolgous IL-13; experiment: Biacore SPR, biotinylated cynomolgous IL-13 on SA chip
# Protocol: as §5
# human IL-13 [16] = target: T4, human IL-13; experiment: cell-based or functional assay; remark: listed apart in the source
# [17] = target: variant IL-13 (R130Q) (human), P35225; experiment: cell-based or functional assay
# Sequence of variant IL-13 (R130Q) (human), P35225 (P35225 35-146, stated change not applied): as the sequence (P35225 35-146 limits assumed) above
# human IL-13 [18] = target: T4, human IL-13; experiment: IL-13 receptor alpha2 RBA, competition
# Protocol: (§6) The plate was incubated for seven hours before being read in the 8200 cellular detection system (Applied Biosystems).
# human IL-13 [19] = target: T4, human IL-13; experiment: IL-13 receptor alpha2 RBA, competition; remark: listed apart in the source
# Protocol: as §6
# human IL-13 [20] = target: T4, human IL-13; experiment: Biacore SPR, IL-13 surface
# human IL-4 [21] = target: T1, human IL-4; experiment: cell-based or functional assay
# human IL-4 [22] = target: T1, human IL-4; experiment: cell-based or functional assay; remark: listed apart in the source
# human IL-4 [23] = target: T1, human IL-4; experiment: IL-4 RBA: ELISA, IL-4R/Fc coated, biotinylated IL-4; remark: listed apart in the source
# From the text: as §1
# human IL-13 [24] = target: T4, human IL-13; experiment: IL-13 RBA
# human IL-13 [25] = target: T4, human IL-13; experiment: cell-based or functional assay; remark: listed apart in the source
binder,measurement,setting,value
"DOM9-155-78 (other, Vk dAb) VL: DIQMTQSPSSLSASVGDRVTITCRASRHIGDWLHWYQQKPGKAPKLLIAWASTLDSGVPSRFSGSGSGTDFTLTISSLQPEDFATYYCLQEGWGPPTFGQGTKVEIKR",IC50,human IL-4 [1],0.41 nM
same,IC50,human IL-4 [2],0.456 nM
same,binding result,rhesus IL-4,binds
"DOM9-155-25 (other, Vk dAb) VL: DIQMTQSPSSLSASVGDRVTITCRASRPISDWLHWYQQKPGKAPKLLIAWASTLDSGVPSRFSGSGSGTDFTLTISSLQPEDFATYYCLQEGWGPPTFGQGTKVEIKR",binding result,rhesus IL-4,binds
same,binding result,cynomolgous IL-4,binds
same,IC50,human IL-4 [3],0.73 nM and 1 nM
"DOM9-155-77 (other, Vk dAb) VL: DIQMTQSPSSLSASVGDRVTITCRASRHISDWLHWYQQKPGKAPKLLIPWASGLWSGVPSRFSGSGSGTDFTLTISSLQPEDFATYYCLQEGWGPPTFGQGTKVEIKR",binding result,rhesus IL-4,binds
same,binding result,human IL-4 [4],binds
"DOM9-155-1 (other, Vk dAb) VL: DIQMTQSPSSLSASVGDRVTITCRASLDIGDWLHWYQQKPGKAPKLLIGWGSGLQSGVPSRFSGSGSGTDFTLTISSLQPEDFATYYCLQEGWGPPTFGQGTKVEIKR",binding result,human IL-4 [5],binds
"DOM10-275-1 (other, VH dAb) VH: EVQLLESGGGLVQPGGSLRLSCAASGFTFDREEMDWVRQAPGKGLEWVSTISPSGRKTYYADSVKGRFTISRDNSKNTLYLQMNSLRAEDTAVYYCAKAYTGFDYWGQGTLVTVSS","IC50, IL-13 cell binding assay (so in the source)",human IL-13 [6],37 nM
same,Kd,human IL-13 [7],25 nM and 28 nM and 27 nM
same,IC50,human IL-13 [8],31.3 nM
same,IC50,human IL-13 [9],38 nM
"DOM10-276-15 (other, VH dAb) VH: EVQLLESGGGLVQPGGSLRLSCAASGFTFRDYEMDWVRQAPGKGLEWVSSISPNGSETNYADSVKGRFTISRDNSKNTLYLQMNSLRAEDTAVYYCAKAYTSFDYWGQGTLVTVSS","IC50, IL-13 cell binding assay (so in the source)",human IL-13 [10],90 nM
same,Kd,human IL-13 [11],1.5 nM
same,IC50,human IL-13 [9],100 nM
"DOM10-275-78 (other, VH dAb) VH: EVQLLESGGGLVQPGGSLRLSCVASGFTFDVAEMDWVRQAPGKGLEWVSTISPSRRGTYYADSVKGRFTISRDNSKNTLYLQMNSLRAEDTAVYYCAKAYTGRSLWGPGTLVTVSS","EC50, HEK293 STAT6 SEAP reporter assay, hIL-13",human IL-13 [12],2.5 nM
same,"EC50, HEK293 STAT6 SEAP reporter assay, cIL-13",cynomolgous IL-13 [13],1.4 nM
same,Kd,human IL-13 [14],0.072 to 0.1 nM
same,Kd,cynomolgous IL-13 [15],0.32 to 0.75 nM
"DOM9-112-210 (other, VH dAb) VH: EVQLLESGGGLVQPGGSLRLSCAASGFTFRNFGMGWVRQAPGKGLEWVSWIISSGTETYYADSVKGRFTISRDNSKNTLYLQMNSLRAEDTAVYYCAKSLGRFDYWGQGTLVTVSS",IC50,human IL-4 [2],0.391 nM
same,IC50,human IL-4 [3],0.144 nM
"DOM10-53-316 (other, VH dAb) VH: GVQLLESGGGLVQPGGSLRLSCAASGFIFAWYDMGWARQAPGKGLEWVSSIDWHGEVTYYADSVKGRFTISRDNSKNTLYLQMNSLRAEDTAVYYCATAEDEPGYDYWGQGTLVTVSS","IC50, TF-1 proliferation with human IL-13",human IL-13 [16],0.39 nM
same,"IC50, TF-1 proliferation with variant IL-13 (R130Q)",[17],0.52 nM
same,IC50,human IL-13 [18],2 nM
same,IC50,human IL-13 [19],1.2 nM
"DOM10-53-474 (other, VH dAb) VH: GVQLLESGGGLVQPGGSLRLSCAASGFTFAWYDMGWVRQAPGKGLEWVSSIDWHGEVTYYADSVKGRFTISRDNSKNTLYLQMNSLRAEDTAVYYCATAEDEPGYDYWGQGTLVTVSS","EC50, HEK293 STAT6 SEAP reporter assay, hIL-13",human IL-13 [12],0.63 nM
same,"EC50, HEK293 STAT6 SEAP reporter assay, cIL-13",cynomolgous IL-13 [13],11.1 nM
same,Kd,human IL-13 [14],0.028 nM
same,EC50,human IL-13 [9],0.023 nM
same,Kd,cynomolgous IL-13 [15],2 nM
"DOM10-53-386 (other, VH dAb) VH: GVQLLESGGGLVQPGGSLRLSCAASGFIFAWYDMGWVRQAPGKGLEWVSSIDWHGKITYYADSVKGRFTISRDNSKNTLYLQMNSLRAEDTAVYYCATAEDEPGYDYWGQGTLVTVSS",binding result,human IL-13 [20],binds
"DOM9-44-502 (other, Vk dAb) VL: DIQMTQSPSSLSASVGDRVTITCRASQNINFWLRWYQQKPGKAPTLLIYDASRSQSGVPSRFSGSGSGTDFTLTISSLQPEDFATYYCQQDLMPPYTFGQGTKVEIKR","average inhibition of HDM induced PBMC proliferation, 100 nM dAb, responding donors",human IL-4 [21],38%
same,"ND50, IL-4 induced TF-1 cell proliferation",human IL-4 [22],4.5 nM
same,IC50,human IL-4 [23],4 nM
same,IC50,human IL-4 [3],5.5 nM and 8.6 nM and 4.1 nM and 3.6 nM
"DOM10-176-535 (other, Vk dAb) VL: DIQMTQSPSSLSASVGDRVTITCRASQWIGPYLNWYQQKPGKAPKPLIYMGYWAPSGVPSRFSGSGSGTDFTLTISSLQPEDFATYYCQQDLYPPFTFGQGTKVEIKR",IC50,human IL-13 [24],~0.5 nM
same,"ND50, IL-13 induced TF-1 cell proliferation",human IL-13 [25],0.77 nM
same,"IC50, TF-1 proliferation with human IL-13",human IL-13 [16],6 nM
same,"IC50, TF-1 proliferation with variant IL-13 (R130Q)",[17],7.8 nM
same,IC50,human IL-13 [19],7.9 nM
same,IC50,human IL-13 [9],1 nM
